The values below come from patent publication EP4658690A2 (dated 2025).

This assay concerns the target T1, human CD180/MD-1 on HEK293 cells (human, UniProt Q99467 24-661; O95711 21-162).
T1 construct: whole, on cells; CD180 co-expressed with MD-1 on engineered HEK293 cells; also called HEK293 CD180/MD-1 cells; CD180/MD1 HEK293 cells
T1 sequence (looked up) 1: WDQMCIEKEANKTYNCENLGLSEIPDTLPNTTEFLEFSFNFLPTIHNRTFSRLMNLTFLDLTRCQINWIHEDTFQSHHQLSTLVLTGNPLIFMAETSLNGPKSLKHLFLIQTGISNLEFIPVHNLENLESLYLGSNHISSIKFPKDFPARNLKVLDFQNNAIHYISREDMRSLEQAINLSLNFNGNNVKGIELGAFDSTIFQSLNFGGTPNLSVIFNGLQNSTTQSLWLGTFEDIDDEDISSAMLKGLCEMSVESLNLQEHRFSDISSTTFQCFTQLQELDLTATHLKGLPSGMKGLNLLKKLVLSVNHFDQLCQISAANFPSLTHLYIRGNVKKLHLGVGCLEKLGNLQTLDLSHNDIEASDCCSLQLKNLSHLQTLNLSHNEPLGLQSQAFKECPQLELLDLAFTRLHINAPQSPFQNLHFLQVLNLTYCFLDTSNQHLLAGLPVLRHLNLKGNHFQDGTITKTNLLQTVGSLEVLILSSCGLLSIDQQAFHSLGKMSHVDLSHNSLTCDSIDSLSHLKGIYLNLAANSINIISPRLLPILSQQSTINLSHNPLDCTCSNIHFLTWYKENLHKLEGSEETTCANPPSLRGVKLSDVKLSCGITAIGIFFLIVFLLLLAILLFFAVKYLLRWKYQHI
T1 sequence (looked up) 2: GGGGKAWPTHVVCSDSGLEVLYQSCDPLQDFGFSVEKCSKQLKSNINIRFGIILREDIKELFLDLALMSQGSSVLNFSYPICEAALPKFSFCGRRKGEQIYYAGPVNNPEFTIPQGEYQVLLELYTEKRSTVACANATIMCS
The assay can be described thus: flow cytometry (called cell-based ELISA) on HEK293 CD180/MD-1 cells, MFI fitted to a 4-parameter curve. (A flow cytometer gives signals particle by particle.)

B1: CHAMPmAb-014 (antibody, V domains shown)
VH: EVQLVESGGGLVQPGRSLRLSCTTSGFTFADYAMHWVRQTPGQGLEWVSGISWNGGTMGYADSVKGRFTISRDIAKNSLYLQMNSLRAEDTALYYCAKDIAYSRGYFQHWGQGTLVTVSS
VL: not shown
As for B1, the EC50 amounted to 4 nM. This lies in the single-digit nanomolar range.

The term EC50 denotes the concentration needed to bring the measured effect to its halfway point. A high value points to weaker potency.
